Source: patent US20260035456A1 (SHANGHAI JEYOU PHARMACEUTICAL, published 2026)

Columns and labels:
biotin-labeled mouse ADM = target: T1, biotin-labeled mouse ADM (mouse, not fully specified; biotin label (named mouse ADM-C-biotin in Example 1.4; position of the biotin not stated for the other lots)); experiment: BLI (Octet RED96e), biotinylated antigen on streptavidin sensor, antibody 100 nM, 1:1 fit
T1 construct: Synthetic peptide; also called mouse ADM-C-biotin; mADM-Biotin
T1 peptide: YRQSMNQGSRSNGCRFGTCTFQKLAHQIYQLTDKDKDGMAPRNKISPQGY
Procedure: (§1) The affinity of the candidate antibody for biotin-labeled human ADM (human ADM-C-biotin for short, the sequence of human ADM is set forth in SEQ ID NO: 4) and mouse ADM (mouse ADM-C-biotin for short, the sequence of mouse ADM is set forth in SEQ ID NO: 5) was determined by adopting Octet RED96e (Fortebio). The antigens and antibody were all diluted with 1× PBST, the concentration of the antigen used was 2 μg/mL, and the working concentration of the antibody used was 100 nM.
(§2) First, the sample was added to a 96-well plate (Greiner bio-one, 655209) with a system of 200 μL/well. Software parameters were then set, the plate temperature was set to 30° C., and the standard kinetic signal was collected at a frequency of 5.0 HZ. Next, a streptavidin sensor (Fortébio, Cat. No. 18-5020) was pre-wetted with 1× PBST for 10 min and then tested on a machine. Each cycle included the following steps: 1) immersing the sensor in a buffer for 180 s to stabilize the baseline; 2) immobilizing the antigen for 10 s, allowing the antigen to bind to the sensor, and controlling the binding amount of the antigen between 0.5 nm and 1.0 nm; 3) immersing the sensor in the buffer for 180 s; 4) binding the antigen to the antibody for the binding time of 180 s; and 5) dissociating the antigen and the antibody for 10 min.
(§3) The equilibrium dissociation constant (KD) of the antibody was calculated by measuring the association rate (Kon) and the dissociation rate (Koff) of the antigen-antibody in a 1:1 binding manner by adopting the Data Analysis 12.0 software from Fortebio.

biotin-labeled human ADM [1] = target: T2, biotin-labeled human ADM (human, not fully specified; biotin label (named human ADM-C-biotin in Example 1.4; position of the biotin not stated for the other lots)); experiment: as above
T2 construct: Synthetic peptide; also called human ADM-C-biotin; hADM-Biotin
T2 peptide: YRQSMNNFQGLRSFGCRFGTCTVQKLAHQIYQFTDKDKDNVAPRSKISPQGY
Procedure: as §1, §2, §3

[2] = target: T3, 21 amino acid polypeptide at the N-terminus of human ADM (human); experiment: ELISA, peptide coated at 1.0 ug/mL, hybridoma supernatant
T3 construct: Coated on the ELISA plate in the hybridoma screening; also called YY-21
T3 peptide: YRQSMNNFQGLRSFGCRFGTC
Procedure: (§4) YY-21 or YY-19 was diluted with PBS to 1.0 μg/mL, added to a 96-well plate (Corning, 9018), with 100 μL/well, and incubated at 4° C. overnight for coating. The ELISA plate was washed 3 times with a washing buffer (PBS+0.05% Tween 20) on an automatic plate washer the next day. 300 μL of a blocking buffer (PBS+0.05% Tween 20+1% BSA) was added to each well, and the plate was placed at room temperature for 1 h for blocking. The plate was then washed 3 times with the washing buffer on the automatic plate washer, and the hybridoma supernatant was added to each well of the ELISA plate. The plate was placed and incubated at room temperature for 1 h, and then washed 3 times according to the method described above. Goat Anti-mouse IgG Fc-HRP (Sigma, A0168) or Goat Anti-rat-IgG-HRP (Sigma, A5795) was diluted in 1:5000 with the blocking buffer, with 100 μL/well. The plate was placed and incubated at room temperature for 1 h. The plate was then washed 3 times according to the method described above. A TMB substrate solution was added with 100 μL/well and incubated at room temperature for 10 min, then 50 μL of 1.0 M hydrochloric acid was added to each well to terminate the reaction, and the plate was read by a microplate reader at OD₄₅₀ nm. […]

[3] = target: T4, 19 amino acid polypeptide at the N-terminus of mouse ADM (mouse); experiment: as above
T4 construct: Coated on the ELISA plate in the hybridoma screening; also called YY-19
T4 peptide: YRQSMNQGSRSNGCRFGTC
Procedure: as §4

biotin-labeled human ADM [4] = target: T2, biotin-labeled human ADM; experiment: ELISA of E. coli culture supernatant of phage library monoclones

B1: hybridoma clone 40E12 (antibody, V domains shown)
VH: QIQLVQSGPELRKPGETVKISCKASGYAFTTFGMSWIKQAPGQGLKWMGWINTYSRVPKYTDDFKGRFAFSLEISATTAYLLINNLKNGDTATYFCARGYGGEGGLGFSGQGTTLTVSS
VL: DVLMTQTPFSLPVSLGDQASISCRSSQSIIDSDGNTYLEWYLQKPGQSPKLLIYKVSNRFSGVPDRFSGSGSGTDFTLRISRVEAEDLGVYYCFQGSHFPYTFAGGTKLELK
notes: Murine hybridoma antibody purified on protein A; also called candidate antibody 40E12
For B1, which Kd (biotin-labeled mouse ADM) is on record?
The Kd was 0.236 nM.

And the koff (biotin-labeled mouse ADM)?
The koff was 8.9e-05 s⁻¹.

And the kon (biotin-labeled mouse ADM)?
The kon was 377000 M⁻¹ s⁻¹.

What about the Kd (biotin-labeled human ADM [1]) of the same binder?
The Kd was 0.314 nM.

And the koff (biotin-labeled human ADM [1])?
Its koff is 0.000109 s⁻¹.

What about the kon (biotin-labeled human ADM [1]) of the same binder?
Its kon is 347000 M⁻¹ s⁻¹.

Does B1 bind [2]?
Result: binds

Does B1 bind [3]?
Result: binds

B2: monoclone 1F12 (from the fully human single-chain phage antibody library) (scFv, V domains shown)
VH: QVQLVQSGAEVKKPGASVKVSCKASGYTFTSYGISWVRQAPGQGLEWMGWISAYNGNTNYAQKLQGRVTMTRDTSTSTAYMELRSLRSDDTAVYYCAREGRSGGSFDIWGQGTMVTVSS
VL: DIQMTQSPSSLSASVGDRVTITCRASQGISSYLAWYQQKPGKAPKLLIYDASNLETGVPSRFSGSGSGTDFTFTISSLQPEDIATYYCQQYDNLPLTFGGGTKVEIK
notes: Tested as E. coli culture supernatant of a clone of a single-chain library
Does B2 bind (biotin-labeled human ADM [4])?
Result: binds
